Test results taken from patent US20240174744A1 (SCIRHOM, published 2024).

T1: hiR2-FL-WT-FLAG (human iRhom2 full length wild type C-terminally tagged with the triple-FLAG epitope) (human, UniProt Q6PJF5 1-856)
T1 construct: also called expressed by MEF-DKO-hiR2-FL-WT-FLAG cells
T1 sequence: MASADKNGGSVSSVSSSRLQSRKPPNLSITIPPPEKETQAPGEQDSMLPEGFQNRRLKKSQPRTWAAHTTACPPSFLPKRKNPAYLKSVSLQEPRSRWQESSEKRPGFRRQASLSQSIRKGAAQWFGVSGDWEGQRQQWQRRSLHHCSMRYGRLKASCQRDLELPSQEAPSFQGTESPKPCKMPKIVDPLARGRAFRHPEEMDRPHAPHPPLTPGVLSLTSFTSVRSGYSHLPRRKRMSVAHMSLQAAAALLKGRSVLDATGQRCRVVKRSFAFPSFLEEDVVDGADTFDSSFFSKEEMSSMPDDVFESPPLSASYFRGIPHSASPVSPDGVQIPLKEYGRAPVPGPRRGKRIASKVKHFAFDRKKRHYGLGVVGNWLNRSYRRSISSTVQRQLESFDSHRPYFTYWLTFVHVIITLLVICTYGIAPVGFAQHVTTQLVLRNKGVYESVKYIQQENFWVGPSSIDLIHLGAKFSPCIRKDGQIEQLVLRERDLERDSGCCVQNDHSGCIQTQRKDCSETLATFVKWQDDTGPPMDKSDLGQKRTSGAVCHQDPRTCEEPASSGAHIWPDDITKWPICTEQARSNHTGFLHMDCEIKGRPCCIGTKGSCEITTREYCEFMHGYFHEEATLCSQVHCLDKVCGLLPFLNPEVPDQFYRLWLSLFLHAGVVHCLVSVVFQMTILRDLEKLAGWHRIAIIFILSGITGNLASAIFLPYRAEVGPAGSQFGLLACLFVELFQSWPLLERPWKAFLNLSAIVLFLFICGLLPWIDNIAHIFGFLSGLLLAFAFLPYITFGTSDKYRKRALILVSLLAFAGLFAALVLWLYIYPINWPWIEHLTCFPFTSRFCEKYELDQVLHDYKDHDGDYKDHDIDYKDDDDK

B1: antibody 47 (antibody, V domains shown)
VH: QVQLQQSGAELVRPGTSVKVSCKASGYAFTNYLIEWVKQRPGQGLEWIGVINPGSGFTNYNEKFKGKAILNADKSSSTAYMQLISLTSEDSAVYFCARDLKRAMDHWGQGTSVTVSS
VL: DIQMTQSPASQSASLGESVTITCLASQTIGTWLAWYQQKPGKSPQLLIHAATSLADGVPSRFSGSGSGTKFSFKISSLQAEDFVSYYCQQIYSSPYTFGGGTKLEIK
notes: Mouse IgG, kappa light chain; also called clone #47
B2: antibody 51 (antibody, V domains shown)
VH: QVQLQQSGAELVKPGASVKISCKASGYTFSNYWMNWVKQRPGKGLEWIGQIYPGDGDTKYNGKFKNKATLTADKSSSTAYMQFSSLTSEDSAVYFCARGDLVFVYWGLGTLVTVSA
VL: DVQITQSPSYLAVSPGETITINCRASKNIRKYLAWYQEKPGKTNKLLIYSGSTSQSGVPSRFSGSGSGTDFTLTISSLEPEDFAMYYCQQHNEYPYTFGGGTKLEIK
notes: Mouse IgG, kappa light chain; also called clone #51

Molecular target: T1, hiR2-FL-WT-FLAG (human iRhom2 full …)
Assay: FACS, MEF-DKO-hiR2-FL-WT-FLAG cells, 3 µg/ml
Protocol: In brief, immortalized MEF-DKO-EV control cells, MEF-DKO-hiR2-FL-WT-FLAG cells and MEF-DKO-miR2-FL-WT-FLAG cells were harvested with 10 mM EDTA in PBS, washed and resuspended in FACS buffer (PBS, 3% FBS, 0.05% sodium azide), and seeded in Nunc U-bottom 96-well plates (Thermo Fisher Scientific, USA) at approximately 3×10⁵ cells per well. To pellet cells and remove supernatants, the plates were centrifuged at 1,500 rpm and 4° C. for 3 minutes. For primary staining, cells were resuspended in 100 μl per well of either FACS buffer alone (controls), mouse monoclonal anti-FLAG IgG (Sigma-Aldrich, USA) at 3 μg/ml FACS buffer or the antibodies of the present disclosure also at 3 μg/ml FACS buffer and incubated on ice for 1 hour. Afterwards, plates were centrifuged at 1,500 rpm and 4° C. for 3 minutes and washed twice with 200 μl per well of FACS buffer. For secondary staining, cells were spun down and resuspended in 100 μl per well of PE-conjugated goat anti-mouse IgG F(ab′)2 detection fragment (Dianova, Germany) diluted 1:100 in FACS buffer. Protected from light, the cell suspensions were incubated on ice for 1 hour. Plates were then centrifuged at 1,500 rpm and 4° C. for 3 minutes and washed three times with 200 μl per well of FACS buffer. Finally, cells were resuspended in 150 μl per well of FACS buffer and analyzed using a BD Accuri™ C6 Plus flow cytometer (Becton Dickinson, Germany).

Row | Binder | binding result
1 | B1 | binds
2 | B2 | binds
